In PMC6030200 (2018):

T1: recombinant human integrin α6β4 (human, UniProt P23229;P16144)
T1 chain 1: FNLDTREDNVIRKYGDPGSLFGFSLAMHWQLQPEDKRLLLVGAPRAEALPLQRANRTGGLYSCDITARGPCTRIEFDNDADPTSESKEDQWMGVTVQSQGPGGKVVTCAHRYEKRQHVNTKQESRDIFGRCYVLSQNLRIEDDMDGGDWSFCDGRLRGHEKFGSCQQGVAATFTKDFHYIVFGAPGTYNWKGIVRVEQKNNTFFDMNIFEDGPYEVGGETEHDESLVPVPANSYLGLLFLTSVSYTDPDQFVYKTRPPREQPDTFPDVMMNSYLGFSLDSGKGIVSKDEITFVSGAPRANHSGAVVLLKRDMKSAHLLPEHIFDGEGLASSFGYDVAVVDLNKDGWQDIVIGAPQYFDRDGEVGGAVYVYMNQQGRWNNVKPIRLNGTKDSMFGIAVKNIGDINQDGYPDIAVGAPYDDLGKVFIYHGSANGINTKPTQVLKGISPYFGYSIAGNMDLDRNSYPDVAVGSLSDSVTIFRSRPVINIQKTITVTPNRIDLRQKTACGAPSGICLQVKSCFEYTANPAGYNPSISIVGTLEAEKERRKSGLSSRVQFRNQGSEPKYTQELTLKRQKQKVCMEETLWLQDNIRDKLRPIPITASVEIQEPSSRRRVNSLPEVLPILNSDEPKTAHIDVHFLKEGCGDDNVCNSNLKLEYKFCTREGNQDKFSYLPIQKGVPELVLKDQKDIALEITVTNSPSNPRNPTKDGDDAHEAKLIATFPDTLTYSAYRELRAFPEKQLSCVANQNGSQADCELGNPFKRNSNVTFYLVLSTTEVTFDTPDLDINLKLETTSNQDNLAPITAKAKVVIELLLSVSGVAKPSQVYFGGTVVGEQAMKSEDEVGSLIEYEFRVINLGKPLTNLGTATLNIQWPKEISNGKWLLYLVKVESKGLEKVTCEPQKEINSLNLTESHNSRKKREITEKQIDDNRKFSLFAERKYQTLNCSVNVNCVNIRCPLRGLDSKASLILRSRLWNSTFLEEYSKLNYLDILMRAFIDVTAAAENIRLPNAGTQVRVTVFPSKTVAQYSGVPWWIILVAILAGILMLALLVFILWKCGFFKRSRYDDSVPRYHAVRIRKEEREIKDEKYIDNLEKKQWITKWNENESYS
T1 chain 2: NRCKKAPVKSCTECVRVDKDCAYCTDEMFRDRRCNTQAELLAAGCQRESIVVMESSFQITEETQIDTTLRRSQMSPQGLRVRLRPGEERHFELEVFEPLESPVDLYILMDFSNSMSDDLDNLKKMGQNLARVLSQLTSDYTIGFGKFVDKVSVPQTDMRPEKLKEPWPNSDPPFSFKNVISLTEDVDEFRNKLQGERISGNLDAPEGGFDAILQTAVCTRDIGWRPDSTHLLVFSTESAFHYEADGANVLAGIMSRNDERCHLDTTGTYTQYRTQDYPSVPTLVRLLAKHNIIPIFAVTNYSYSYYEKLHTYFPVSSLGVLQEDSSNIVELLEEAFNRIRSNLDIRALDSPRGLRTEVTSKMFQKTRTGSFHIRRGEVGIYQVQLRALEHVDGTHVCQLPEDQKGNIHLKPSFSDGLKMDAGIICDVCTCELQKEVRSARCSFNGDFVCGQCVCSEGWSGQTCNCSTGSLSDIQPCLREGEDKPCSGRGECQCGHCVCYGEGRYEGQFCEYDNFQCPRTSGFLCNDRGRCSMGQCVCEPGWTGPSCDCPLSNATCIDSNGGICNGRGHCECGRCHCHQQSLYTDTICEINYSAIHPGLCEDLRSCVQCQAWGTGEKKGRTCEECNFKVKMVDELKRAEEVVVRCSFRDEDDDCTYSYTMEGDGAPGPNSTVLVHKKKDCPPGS

B1: HAdV-40 penton base protein, recombinant, soluble (natural protein)
chain: MRRAVGVPPVMAYAEGPPPSYESVMETADLPATLQALHVPPRYLGPTEGRNSIRYSELAPLYDTTRVYLVDNKSADIASLNYQNDHSNFQTTVVQNNDFTPTEAGTQTINFDDRSRWGGDLKTILRTNMPNINEFMSTNKFRARVMVEKVNRKTNAPRYEWFEFTLPEGNYSETMTIDLMNNAIVDNYLAVGRQNGVLESDIGVKFDTRNFRLGWDPVTKLVMPGVYTNEAFHPDIVLLPGCGVDFTQSRLNNLLGIRKRMPFQKGFQIMYEDLEGGNIPALLDVEKYEASIKEAQEIRGADFKPNPQDLEIVPVEKDSKERSYNLLEGDKNNTAYRSWFLAYNYGDAEKGVKSWTLLTTTDVTCGSQQVYWSLPDMMQDPVTFRPSTQVSNYPVVGVELLPVHAKSFYNEQAVYSQLIRQSTALTHIFNRFPENQILVRPPAPTITTVSENVPALTDHGTLPLRSSISGVQRVTITDARRRTCPYVHKALGIVAPKVLSSRTF
B2: HAdV-5 penton base protein, recombinant, soluble (natural protein)
chain: MRRAAMYEEGPPPSYESVVSAAPVAAALGSPFDAPLDPPFVPPRYLRPTGGRNSIRYSELAPLFDTTRVYLVDNKSTDVASLNYQNDHSNFLTTVIQNNDYSPGEASTQTINLDDRSHWGGDLKTILHTNMPNVNEFMFTNKFKARVMVSRLPTKDNQVELKYEWVEFTLPEGNYSETMTIDLMNNAIVEHYLKVGRQNGVLESDIGVKFDTRNFRLGFDPVTGLVMPGVYTNEAFHPDIILLPGCGVDFTHSRLSNLLGIRKRQPFQEGFRITYDDLEGGNIPALLDVDAYQASLKDDTEQGGGGAGGSNSSGSGAEENSNAAAAAMQPVEDMNDHAIRGDTFATRAEEKRAEAEAAAEAAAPAAQPEVEKPQKKPVIKPLTEDSKKRSYNLISNDSTFTQYRSWYLAYNYGDPQTGIRSWTLLCTPDVTCGSEQVYWSLPDMMQDPVTFRSTRQISNFPVVGAELLPVHSKSFYNDQAVYSQLIRQFTSLTHVFNRFPENQILARPPAPTITTVSENVPALTDHGTLPLRNSIGGVQRVTITDARRRTCPYVYKALGIVSPRVLSSRTF
B3: HAdV-41 penton base protein, recombinant, soluble (natural protein)
chain: MRRAVGVPPVMAYAEGPPPSYESVMGSADSPATLEALYVPPRYLGPTEGRNSIRYSELAPLYDTTRVYLVDNKSADIASLNYQNDHSNFQTTVVQNNDFTPAEAGTQTINFDERSRWGADLKTILRTNMPNINEFMSTNKFKARLMVEKKNKETGLPRYEWFEFTLPEGNYSETMTIDLMNNAIVDNYLEVGRQNGVLESDIGVKFDTRNFRLGWDPVTKLVMPGVYTNEAFHPDIVLLPGCGVDFTQSRLSNLLGIRKRLPFQEGFQIMYEDLEGGNIPALLDVAKYEASIQKAKEEGKEIGDDTFATRPQDLVIEPVAKDSKNRSYNLLPNDQNNTAYRSWFLAYNYGDPKKGVQSWTLLTTADVTCGSQQVYWSLPDMMQDPVTFRPSTQVSNYPVVGVELLPVHAKSFYNEQAVYSQLIRQSTALTHVFNRFPENQILVRPPAPTITTVSENVPALTDHGTLPLRSSISGVQRVTITDARRRTCPYVHKALGIVAPKVLSSRTF

Legend:
Assay in all cases: SPR
[1] = target: T1, recombinant human integrin α6β4
[2] = target: T2, recombinant human integrin α6β1 (human, UniProt P23229;P05556)
[3] = target: T1, recombinant human integrin α6β4
[4] = target: T2, recombinant human integrin α6β1; remark: listed apart in the source

| Binder | koff [1] [s⁻¹] | Kd [2] [nM] | Kd [3] [nM] | koff [4] [s⁻¹] |
| --- | --- | --- | --- | --- |
| B1 | 0.0049 | 426 | 32.7 |  |
| B2 | 0.0045 | 1560 | 95 | 0.0059 |
| B3 | 0.022 | 473 | 41.2 | 0.011 |
